Data published in US20230391860A1 (CANON MEDICAL SYSTEMS, published 2023).

What was measured:
Test in all cases: ELISA on immobilised peptide, antibody 1 ug/mL
[1] = biological target: T1, mCRP (19) (human)
T1 peptide: QTDMSRKAFVC
Description: (§1) The following materials were used as materials for epitope analysis. [0156] (a) Plate: Immunoplate for ELISA (96 well) manufactured by Nunc [0157] […] (c) Solid-phase buffer: 0.1 M carbonate buffer pH 9.5 (IBL) [0159] (d) Antiserum dilution buffer: 1% BSA, 0.05% Tween-20 (Kanto Chemical Co., Inc.) in PBS [0160] (e) Labeled antibody dilution buffer: 1% BSA, 0.05% Tween-20 in PBS [0161] (f) Washing buffer: 0.05% Tween-20 in 0.1 M PB [0162] (g) Substrate buffer: K₂HPO₄-citrate buffer (pH 5.1) (IBL) [0163] (h) Reaction stop solution: 1 mol/L-H₂SO₄ (Wako Pure Chemical Industries, Ltd.)
(§2) Epitope analysis was performed by the following procedure. [0166] (a) Peptides were immobilized on a plate by standing at 50 ng/well (50 μL/well) for 16 hours at 4° C. […] (b) Solid phase peptides were washed twice with Dulbecco's PBS (D-PBS) (200 μL/well). [0168] (c) Blocking was performed by adding 200 μL of D-PBS containing 0.1% BSA and 0.05% NaN₃ to each well and leaving it at 4° C. overnight. [0169] (d) Each well was washed twice with the washing buffer. [0170] (e) The antibody was diluted to 1 μg/mL with the dilution buffer and the diluted solution was added to each well (50 μL/well) and left at 37° C. for 30 minutes. [0171] (f) Each well was washed four or more times with the washing buffer. [0172] (g) Anti-mouse IgG (γ-specific)-HRP, a labeled antibody, was added to each well (50 μL/well) and left at 37° C. for 30 minutes. [0173] (h) Each well was washed four or more times with the washing buffer. [0174] (i) A chromogenic reaction was started by adding a substrate solution (400 μg/mL) to each well (100 μL/well), and the reaction was allowed to proceed for 15 minutes at room temperature in the dark. [0175] (j) After 15 minutes, the reaction was stopped by addition of 1 mol/L sulfuric acid (100 μL/well), and absorbance (490 nm) was measured.

[2] = biological target: T2, mCRP (29) (human)
T2 peptide: FPKESDTSYVC
Description: as §1, §2

[3] = biological target: T3, mCRP (39) (human)
T3 peptide: SLKAPLTKPLC
Description: as §1, §2

[4] = biological target: T4, mCRP (49) (human)
T4 peptide: KAFTVCLHFYC
Description: as §1, §2

[5] = biological target: T5, mCRP (59) (human)
T5 peptide: TELSSTRGYSC
Description: as §1, §2

[6] = biological target: T6, mCRP (69) (human)
T6 peptide: IFSYATKRQDC
Description: as §1, §2

[7] = biological target: T7, mCRP (79) (human)
T7 peptide: NEILIFWSKDC
Description: as §1, §2

[8] = biological target: T8, mCRP (89) (human)
T8 peptide: IGYSFTVGGSC
Description: as §1, §2

[9] = biological target: T9, mCRP (99) (human)
T9 peptide: EILFEVPEVTC
Description: as §1, §2

[10] = biological target: T10, mCRP (109) (human)
T10 peptide: VAPVHICTSWC
Description: as §1, §2

[11] = biological target: T11, mCRP (119) (human)
T11 peptide: ESASGIVEFWC
Description: as §1, §2

[12] = biological target: T12, mCRP (129) (human)
T12 peptide: VDGKPRVRKSC
Description: as §1, §2

[13] = biological target: T13, mCRP (139) (human)
T13 peptide: LKKGYTVGAEC
Description: as §1, §2

[14] = biological target: T14, mCRP (149) (human)
T14 peptide: ASIILGQEQDC
Description: as §1, §2

[15] = biological target: T15, mCRP (159) (human)
T15 peptide: SFGGNFEGSQC
Description: as §1, §2

[16] = biological target: T16, mCRP (169) (human)
T16 peptide: SLVGDIGNVNC
Description: as §1, §2

[17] = biological target: T17, mCRP (179) (human)
T17 peptide: MWDFVLSPDEC
Description: as §1, §2

[18] = biological target: T18, mCRP (189) (human)
T18 peptide: INTIYLGGPFC
Description: as §1, §2

[19] = biological target: T19, mCRP (199) (human)
T19 peptide: SPNVLNWRALC
Description: as §1, §2

[20] = biological target: T20, mCRP (209) (human)
T20 peptide: KYEVQGEVFTKPQLWPC
Description: as §1, §2

[21] = biological target: T21, mCRP (31-60) (human)
T21 peptide: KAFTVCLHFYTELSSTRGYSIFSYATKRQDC

[22] = biological target: T22, mCRP (61-90) (human)
T22 peptide: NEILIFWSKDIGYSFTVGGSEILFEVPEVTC

[23] = biological target: T23, mCRP (121-150) (human)
T23 peptide: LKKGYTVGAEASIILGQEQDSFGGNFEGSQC

[24] = biological target: T24, mCRP (151-180) (human)
T24 peptide: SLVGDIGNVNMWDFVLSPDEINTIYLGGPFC

[25] = biological target: T25, mCRP (181-206) (human)
T25 peptide: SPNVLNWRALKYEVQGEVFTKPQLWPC

B1: human denatured CRP-specific antibody produced from hybridoma mCRP-3C (antibody, mouse IgG2b, V domains shown)
VH: QVQLQQSGAELVRPGASVKLSCKALDYTFTDYEMHWVKQTPVHGLEWIGAIHPGRGGTAYNQKFKGKATLTADKSSSTAYMELSSLTSEDSGVYYCTSYHGGYWGQGTTLTVSS
VL: DVVMTQTPLSLPVSLGDQASISCRSSQSLVHSNENTYLLWYLQKPGQSPKLLIYKVSNRFSGVPDRFSGSGSGTDFTLKISRVEAEDLGVYFCSQTTHVPWTFGGGTKLEIKR
notes: Mouse IgG2b, kappa; also called 3C antibody
absorbance (490 nm) [1]: 0.004
absorbance (490 nm) [2]: -0.001
absorbance (490 nm) [3]: 0.001
absorbance (490 nm) [4]: 0
absorbance (490 nm) [5]: 0.001
absorbance (490 nm) [6]: 0.002
absorbance (490 nm) [7]: 0
absorbance (490 nm) [8]: 0
absorbance (490 nm) [9]: 1.58
absorbance (490 nm) [10]: -0.001
absorbance (490 nm) [11]: 0.005
absorbance (490 nm) [12]: 0.002
absorbance (490 nm) [13]: 0.002
absorbance (490 nm) [14]: 0.001
absorbance (490 nm) [15]: 0.002
absorbance (490 nm) [16]: 0.001
absorbance (490 nm) [17]: 0.003
absorbance (490 nm) [18]: 0.007
absorbance (490 nm) [19]: 0.006
absorbance (490 nm) [20]: 0
absorbance (490 nm) [21]: 0.03
absorbance (490 nm) [22]: 1.98
absorbance (490 nm) [23]: 0.017
absorbance (490 nm) [24]: 0.108
absorbance (490 nm) [25]: 0.006
